Measurements from patent publication US20110287023A1 (AstraZeneca / MedImmune, published 2011).
Where no end group is shown, it is not given here.

How the values were obtained:
[1] = target: T1, HMGB1 peptide 179-186 (UniProt P09429 179-186, also: biotinylated, site not given here); assay: ELISA, biotinylated peptide on NeutrAvidin plate, antibody serially diluted from 10 ug/ml, anti-human IgG-HRP, OD 450
T1 peptide (looked up): EKSKKKKE
Protocol: (§1) The plate was then blocked with 4% milk powder dissolved in PBS at 37° C. for 1 hour. The blocking solution was removed and replaced with human anti-HMG1 antibodies at various concentrations (see FIGS. 5A-B). […] HRP activity was detected with Sureblue HRP substrate (KPL). Plates were read at 450 nm using a Kinetic Microplate Reader (Molecular Devices). […] After washing and blocking with 1% BSA in PBS, the biotinylated peptides were individually added into the avidin coated wells and incubated for 30 min at room temperature. The serial diluted antibody G4, S16 and S6 at the initial concentration at 10 μg/ml were then transferred into the wells followed by adding mouse anti human IgG-HRP conjugate (Pierce). Detection was accomplished by adding 50 μl of tetramethylbenzidine (TMB) substrate (KPL) and the absorbance was read at 450 nm.

[2] = target: T2, recombinant HMG1 produced in E. coli as a calmodulin binding protein (CBP) fusion (human); assay: sandwich ELISA, captured antibody and soluble HMG1, OD 450
T2 construct: also called rHMG1; rHMGB1
Protocol: Sandwich ELISA (soluble HMG1): Immunoplates (EIA/RIA plate, High binding, Costar) were coated with anti human IgG Fc at 10 μg/ml in PBS (pH 7.2) and incubated at 4° C. overnight. The coating reagent was removed and the plates were rinsed briefly with PBS. The plates were then blocked with 4% milk for 1 hour at 37° C. and rinsed with PBS. The anti-HMG1 antibodies were diluted in 4% milk. For serial dilutions, the antibodies were used at a starting concentration of 20 μg/ml. The diluted anti-HMG1 antibodies were then added into plate and incubated for 1 hr at 37° C. The plate was then washed 10 times with PBST (PBS/0.1% tween 20) and incubate with antigen (HMGB1, 2 μg/ml; or 0.7 μg/ml for native HMGB1) in 4% milk and incubated at 37° C. for 1 h. The plate was then wash 10 times and incubated with mouse anti-HMGB1, 1 μg/ml in 4% milk at 37° C. for 1 h. The plate was washed 10 times and incubated with anti-mouse IgG-HRP at 1:1000 at 37° C. for 1 h. The plate was then washed and developed. HRP activity was detected with Sureblue HRP substrate (KPL). Plates were read at 450 nm using a Kinetic Microplate Reader (Molecular Devices).

[3] = target: T3, HMGB1 B-box peptide 108-138 (UniProt P09429 108-138, biotinylated); assay: ELISA on biotinylated overlapping peptides
T3 peptide (looked up): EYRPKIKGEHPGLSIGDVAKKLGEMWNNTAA
Protocol: as §1

[4] = target: T4, HMGB1 C-terminal tail peptide 188-215 (UniProt P09429 188-215, biotinylated); assay: ELISA on biotinylated overlapping peptides
T4 peptide (looked up): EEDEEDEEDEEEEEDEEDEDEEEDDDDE
Protocol: as §1

[5] = target: T5, nuclear HMGB1 in fixed HUVEC cells (UniProt P09429 1-215, limits assumed); assay: immunofluorescence on fixed HUVEC, anti-human IgG-FITC; paragraph 81 gives the lower panels as G4
T5 construct: whole, on cells; immunostaining
T5 sequence (looked up): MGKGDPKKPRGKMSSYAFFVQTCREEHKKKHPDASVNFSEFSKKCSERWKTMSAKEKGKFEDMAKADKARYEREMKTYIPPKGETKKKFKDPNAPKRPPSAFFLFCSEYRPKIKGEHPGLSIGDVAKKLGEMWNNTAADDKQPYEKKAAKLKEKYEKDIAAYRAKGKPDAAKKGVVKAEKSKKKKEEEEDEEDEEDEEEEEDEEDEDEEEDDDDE
Protocol: Immunofluorescence: Intracytoplasmic (ic) HMGB1 was quantitated by direct immunofluorescence. HUVEC were harvested by trypsin-EDTA treatment and seeded on a glass coverslip. Once the cells are settled, they were stimulated with 0.2 μg/ml of LPS (Sigma) for 4 hours. The cells were fixed in 2% paraformaldehyde for 15 min and then permeabilized in 0.2% Triton X-100 for 2 min. Fixed and permeabilized cells were incubated with anti-HMGB1 antibodies at 1 μg/ml for 1 hour at room temperature. Cells were then washed to remove excess or nonspecifically bound primary antibody followed by incubation with anti human IgG conjugated with fluorescence (Pierce). The sections were mounted with fluoromount (Southern Associates, Birmingham, Ala.), and the images were processed with a Nikon microscope (Japan) and a SPOT imaging system (Diagnostic Instrument).

[6] = target: T6, HMGB1 in joint lysate of adjuvant induced arthritis (AIA) rats (rat, UniProt P63159 2-215); assay: sandwich ELISA: antibody captured on anti-human Fc, AIA joint lysate added, mouse anti-HMGB1 detection, OD 450
T6 construct: also called HMGB1 from arthritis joints; joint lysate HMGB1
T6 sequence (looked up): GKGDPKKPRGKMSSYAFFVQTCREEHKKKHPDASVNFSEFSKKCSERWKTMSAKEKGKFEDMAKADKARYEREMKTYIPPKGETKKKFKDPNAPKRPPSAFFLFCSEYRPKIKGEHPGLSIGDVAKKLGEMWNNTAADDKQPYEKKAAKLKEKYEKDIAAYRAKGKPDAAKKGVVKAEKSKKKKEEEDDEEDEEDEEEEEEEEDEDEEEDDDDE
Protocol: HMGB1 Detection from Biological Samples: For detection of the HMGB1 from AIA joint homogenates and peritonitis sera, sandwich ELISA was performed. Goat anti-human Fc (Pierce) 14 μg/ml in PBS was coated on Immunlon IV microtiter plate over night at 4° C. After washing and blocking with 5% milk 1 hr at room temperature, G4 or S6 in blocking buffer (10 μg/ml) were added to each well of the blocked plate. The plate was washed 1 hour later and 25 μl of AIA homogenates containing 0.8 μg/ml of HMGB1 or peritonitis sera containing 7 μg/ml of HMGB1 in 0.5 M NaCl/blocking buffer were added to the wells at two fold serial dilutions. The unbound materials were removed by washing one hr after incubation. The bound HMGB1 was detected by a mouse anti-HMGB1 antibody at 2 μg/ml followed by an anti-mouse antibody conjugated with horseradish peroxidase. Mouse peritonitis sera was obtained by heart puncture 7 days after infection with heat killed staphylococcus aureus. Joint lysate was prepared from the whole paw of AIA rats as described in Example 6 below. Human sepsis sera were purchased from a commercial source.

B1: human anti-HMG1 antibody S16 (antibody, IgG1, V domains shown)
VH: EVQLLESGGGLVQPGGSLRLSCAASGFTFSWYSMLWVRQAPGKGLEWVSYISPSGGFTNYADSVKGRFTISRDNSKNTLYLQMNSLRAEDTAVYYCARWDYNSGWYYDHWGQGTLVTVSS
VL: DIQMTQSPDTLSLSPGERATLSCRASQSVNSRNLAWYQQKPGQAPRLLIYGASTRATGIPDRFSGSVSGTEFTLTISSLQPDDFATYYCQQYNSYFTFGQGTKLEIK
notes: full length IgG1 made from a human Fab phage clone; also called ATCC PTA-6259
Question: Does B1 bind [1]?
Answer: Result: binds

B2: human anti-HMG1 antibody E11 (antibody, IgG1, V domains shown)
VH: EVQLLESGGGLVQPGGSLRLSCAASGFTFSRYQMNWVRQAPGKGLEWVSSISPSGGHTHYADSVKGRFTISRDNSKNTLYLQMNSLRAEDTAVYYCAKDGRQGKISTVDHWGQGTLVTVSS
VL: DIQMTQSPGTLSLSPGERATLSCRASQSVRSNFLAWYQQKPGQAPRLLIYGASRRASGIPDRFSGSGFGADFTLSISRLEPEDFAVYYCQQYGSSPNTFGQGSRVEIK
notes: full length IgG1 made from a human Fab phage clone
Question: How did the “EC50 (read off the curve)” value [2] turn out when B2 was run?
Answer: Its value is about 0.4 µg/mL.

B3: human anti-HMG1 antibody G4 (antibody, IgG1, V domains shown)
VH: EVQLLESGGGLVQPGGSLRLSCAASGFTFSWYDMTWVRQAPGKGLEWVSSISPSGGYTKYADSVKGRFTISRDNSKNTLYLQMNSLRAEDTAVYYCTTEFYDYLDVWGKGTTVTVSS
VL: DIQMTQSPGTLSLSPGEGATLSCRASQSVSSTYLAWYQQKPGQAPRLLIYEASKRATGTPARFSGSGSGTDFTLSISSLEPEDFAVYYCQHRHNWPPQWTFGQGTKVEVK
notes: full length IgG1 made from a human Fab phage clone; also called ATCC PTA-6258
Question: Does B3 bind [3]?
Answer: Result: binds

Question: Does B3 bind [4]?
Answer: Result: binds

Question: Does B3 bind [5]?
Answer: Result: binds

Question: Does B3 bind [6]?
Answer: Result: binds
